T1: human IL-18Rβ on cells (human, UniProt O95256 20-599)
T1 sequence: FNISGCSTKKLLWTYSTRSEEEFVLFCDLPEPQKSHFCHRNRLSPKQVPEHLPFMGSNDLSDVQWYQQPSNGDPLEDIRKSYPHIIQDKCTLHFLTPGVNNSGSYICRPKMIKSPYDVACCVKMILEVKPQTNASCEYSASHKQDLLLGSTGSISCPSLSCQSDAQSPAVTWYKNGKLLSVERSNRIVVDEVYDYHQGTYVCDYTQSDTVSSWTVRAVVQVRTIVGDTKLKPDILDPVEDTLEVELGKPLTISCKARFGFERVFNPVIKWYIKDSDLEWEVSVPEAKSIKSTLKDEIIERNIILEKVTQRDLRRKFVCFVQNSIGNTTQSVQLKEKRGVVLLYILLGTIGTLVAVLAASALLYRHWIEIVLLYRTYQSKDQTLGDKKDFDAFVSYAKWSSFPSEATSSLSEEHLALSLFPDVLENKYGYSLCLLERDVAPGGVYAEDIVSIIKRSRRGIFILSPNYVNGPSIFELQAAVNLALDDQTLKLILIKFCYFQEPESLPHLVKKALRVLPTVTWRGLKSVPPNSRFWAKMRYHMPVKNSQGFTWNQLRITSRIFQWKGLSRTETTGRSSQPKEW

T2: huIL-18Rβ-HisAvi (human, UniProt O95256 20-356, biotinylated in the Octet blocking assay)
T2 construct: Soluble analyte in all SPR runs; captured on streptavidin sensors in the Octet assay; also called human IL-18Rβ; human IL-18Rβ-Avi-His
T2 sequence: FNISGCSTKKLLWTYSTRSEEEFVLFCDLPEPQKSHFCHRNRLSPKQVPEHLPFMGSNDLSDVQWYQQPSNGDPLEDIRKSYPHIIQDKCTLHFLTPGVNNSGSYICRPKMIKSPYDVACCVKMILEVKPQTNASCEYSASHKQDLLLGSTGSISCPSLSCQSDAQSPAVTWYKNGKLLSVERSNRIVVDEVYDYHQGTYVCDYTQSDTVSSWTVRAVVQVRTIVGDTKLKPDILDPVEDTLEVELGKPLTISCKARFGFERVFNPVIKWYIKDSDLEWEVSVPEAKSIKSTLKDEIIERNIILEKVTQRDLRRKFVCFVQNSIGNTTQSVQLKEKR

T3: cyIL-18Rβ-HisAvi (cynomolgus monkey)
T3 construct: Soluble analyte in SPR; also called cyno IL-18Rβ; cynomolgus monkey IL-18Rβ
T3 chain: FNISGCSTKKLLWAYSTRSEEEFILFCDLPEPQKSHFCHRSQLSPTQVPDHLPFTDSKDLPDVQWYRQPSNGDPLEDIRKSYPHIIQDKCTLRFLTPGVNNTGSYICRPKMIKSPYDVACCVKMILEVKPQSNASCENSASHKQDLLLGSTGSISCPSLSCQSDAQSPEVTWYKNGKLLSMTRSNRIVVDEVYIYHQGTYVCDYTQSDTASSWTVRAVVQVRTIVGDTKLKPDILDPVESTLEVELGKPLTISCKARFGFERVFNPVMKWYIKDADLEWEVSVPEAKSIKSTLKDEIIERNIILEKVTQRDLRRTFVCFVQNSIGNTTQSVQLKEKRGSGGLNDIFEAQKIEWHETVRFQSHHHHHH


Assays:
human IL-18Rβ on cells [1] = molecular target: T1, human IL-18Rβ on cells; assay: cell-based or functional assay
huIL-18Rβ-HisAvi [2] = molecular target: T2, huIL-18Rβ-HisAvi; assay: SPR T200, mAb on anti-hFc, 37C, pH 6
cyIL-18Rβ-HisAvi [3] = molecular target: T3, cyIL-18Rβ-HisAvi; assay: SPR T200, mAb on anti-hFc, 37C, pH 6
huIL-18Rβ-HisAvi [4] = molecular target: T2, huIL-18Rβ-HisAvi; assay: SPR T200, mAb on anti-hFc, 37C, pH 7.4
cyIL-18Rβ-HisAvi [5] = molecular target: T3, cyIL-18Rβ-HisAvi; assay: SPR T200, mAb on anti-hFc, 37C, pH 7.4
huIL-18Rβ-HisAvi [6] = molecular target: T2, huIL-18Rβ-HisAvi; assay: SPR T200, mAb on anti-hFc, 37C, pH 6; remark: listed apart in the source
cyIL-18Rβ-HisAvi [7] = molecular target: T3, cyIL-18Rβ-HisAvi; assay: SPR T200, mAb on anti-hFc, 37C, pH 6
huIL-18Rβ-HisAvi [8] = molecular target: T2, huIL-18Rβ-HisAvi; assay: SPR T200, mAb on anti-hFc, 37C, pH 7.4; remark: listed apart in the source
cyIL-18Rβ-HisAvi [9] = molecular target: T3, cyIL-18Rβ-HisAvi; assay: SPR T200, mAb on anti-hFc, 37C, pH 7.4
human IL-18Rβ on cells [10] = molecular target: T1, human IL-18Rβ on cells; assay: cell-based or functional assay; remark: listed apart in the source

IC50, LPS+IL-12 dependent IFNg production, human whole blood (human IL-18Rβ on cells [1])	Kd (huIL-18Rβ-HisAvi [2])	koff (huIL-18Rβ-HisAvi [2])	kon (huIL-18Rβ-HisAvi [2])	Kd (cyIL-18Rβ-HisAvi [3])	koff (cyIL-18Rβ-HisAvi [3])	kon (cyIL-18Rβ-HisAvi [3])	Kd (huIL-18Rβ-HisAvi [4])	koff (huIL-18Rβ-HisAvi [4])	kon (huIL-18Rβ-HisAvi [4])	Kd (cyIL-18Rβ-HisAvi [5])	koff (cyIL-18Rβ-HisAvi [5])	kon (cyIL-18Rβ-HisAvi [5])	Kd (huIL-18Rβ-HisAvi [6])	koff (huIL-18Rβ-HisAvi [6])	kon (huIL-18Rβ-HisAvi [6])	Kd (cyIL-18Rβ-HisAvi [7])	koff (cyIL-18Rβ-HisAvi [7])	kon (cyIL-18Rβ-HisAvi [7])	Kd (huIL-18Rβ-HisAvi [8])	Binder	further results
1.65 nM	0.7 nM	0.00043 s⁻¹	610000 M⁻¹ s⁻¹	14 nM	0.0022 s⁻¹	160000 M⁻¹ s⁻¹	2.3 nM	0.00053 s⁻¹	230000 M⁻¹ s⁻¹	22 nM	0.0032 s⁻¹	150000 M⁻¹ s⁻¹	–	–	–	–	–	–	–	P21-V2 (antibody, human IgG1, kappa, name in Kabat numbering, built from the chains of the parent P21 with the printed mutation) heavy: QVQLQQSGPGLVKPSETLSLTCTVSGGSISNYYWTWIRQPPGKGLEWIGYISDSGSTNYNPSLKSRVTISVDTSKNQFSLKLSSVTAADTAVYYCARETIVVRGFYFYVMDVWGQGTTVTVSSASTKGPSVFPLAPSSKSTSGGTAALGCLVKDYFPEPVTVSWNSGALTSGVHTFPAVLQSSGLYSLSSVVTVPSSSLGTQTYICNVNHKPSNTKVDKRVEPKSCDKTHTCPPCPAPEAEGAPSVFLFPPKPKDTLMISRTPEVTCVVVDVSHEDPEVKFNWYVDGVEVHNAKTKPREEQYNSTYRVVSVLTVLHQDWLNGKEYKCKVSNKALPAPIEKTISKAKGQPREPQVYTLPPSREEMTKNQVSLTCLVKGFYPSDIAVEWESNGQPENNYKTTPPVLDSDGSFFLYSKLTVDKSRWQQGNVFSCSVMHEALHNHYTQKSLSLSPG light: not shown	–
1.63 nM	0.66 nM	0.00039 s⁻¹	590000 M⁻¹ s⁻¹	8.4 nM	0.0016 s⁻¹	190000 M⁻¹ s⁻¹	2.3 nM	0.00054 s⁻¹	240000 M⁻¹ s⁻¹	17 nM	0.0027 s⁻¹	160000 M⁻¹ s⁻¹	0.66 nM	0.00039 s⁻¹	590000 M⁻¹ s⁻¹	8.4 nM	0.0016 s⁻¹	190000 M⁻¹ s⁻¹	2.3 nM	P21-V3 (antibody, human IgG1, kappa, name in Kabat numbering, built from the chains of the parent P21 with the printed mutations) heavy: QVQLQESGPGLVKPSETLSLTCTVSGGSISNYYWTWIRQPPGKGLEWIGYISDSGSTNYNPSLKSRVTISVDTSKNQFSLKLSSVTAADTAVYYCARETIVVRGFYFYVMDVWGQGTTVTVSSASTKGPSVFPLAPSSKSTSGGTAALGCLVKDYFPEPVTVSWNSGALTSGVHTFPAVLQSSGLYSLSSVVTVPSSSLGTQTYICNVNHKPSNTKVDKRVEPKSCDKTHTCPPCPAPEAEGAPSVFLFPPKPKDTLMISRTPEVTCVVVDVSHEDPEVKFNWYVDGVEVHNAKTKPREEQYNSTYRVVSVLTVLHQDWLNGKEYKCKVSNKALPAPIEKTISKAKGQPREPQVYTLPPSREEMTKNQVSLTCLVKGFYPSDIAVEWESNGQPENNYKTTPPVLDSDGSFFLYSKLTVDKSRWQQGNVFSCSVMHEALHNHYTQKSLSLSPG light: not shown	koff (huIL-18Rβ-HisAvi [8]): 0.00054 s⁻¹; kon (huIL-18Rβ-HisAvi [8]): 240000 M⁻¹ s⁻¹; Kd (cyIL-18Rβ-HisAvi [9]): 17 nM; koff (cyIL-18Rβ-HisAvi [9]): 0.0027 s⁻¹; kon (cyIL-18Rβ-HisAvi [9]): 160000 M⁻¹ s⁻¹
–	–	–	–	–	–	–	–	–	–	–	–	–	0.29 nM	0.00013 s⁻¹	440000 M⁻¹ s⁻¹	1.4 nM	0.00023 s⁻¹	160000 M⁻¹ s⁻¹	0.24 nM	P20-V2 (antibody, human IgG1, kappa, V domains shown, Variant of P20) VH: QVQLQESGPGLVKPSETLSLTCTVSGGSINNYYWSWIRQPPGKGLEWIGYIFYSGTTNYNPSLKSRVTISVDTSKNQFSLKLSSVTAADTAVYYCARDVGIAARNSYYYVMDVWGQGTTVTVSS VL: AIQLTQSPSSLSASVGDRVTITCRASQGISSALAWYQQKPGKAPKFLIYEGSSLESGVPSRFSGSGSGTDFTLTISSLQPEDFATYYCQQFNSYPITFGQGTRLEIKR	Average IC50, LPS+IL-12 dependent IFNg production, human whole blood (human IL-18Rβ on cells [10]): 0.37 nM; koff (huIL-18Rβ-HisAvi [8]): 8.9e-05 s⁻¹; kon (huIL-18Rβ-HisAvi [8]): 360000 M⁻¹ s⁻¹; Kd (cyIL-18Rβ-HisAvi [9]): 0.92 nM; koff (cyIL-18Rβ-HisAvi [9]): 0.00016 s⁻¹; kon (cyIL-18Rβ-HisAvi [9]): 180000 M⁻¹ s⁻¹
0.85 nM	0.13 nM	6.8e-05 s⁻¹	520000 M⁻¹ s⁻¹	0.61 nM	0.00015 s⁻¹	250000 M⁻¹ s⁻¹	1 nM	0.00022 s⁻¹	210000 M⁻¹ s⁻¹	2.9 nM	0.00032 s⁻¹	110000 M⁻¹ s⁻¹	0.13 nM	6.8e-05 s⁻¹	520000 M⁻¹ s⁻¹	0.61 nM	0.00015 s⁻¹	250000 M⁻¹ s⁻¹	1 nM	P20-V6 (antibody, human IgG1, kappa, name in Kabat numbering, built from the chains of the parent P20 with the printed mutation) heavy: QVQLQESGPGLVKPSETLSLTCTVSGGSINNYYWSWIRQPPGKGLEWIGYIFYSGTTNYNPSLKSRVTISVDTSKNQFSLKLSSVTAADTAVYYCARDVGIAARNSYYYVMDVWGQGTTVTVSSASTKGPSVFPLAPSSKSTSGGTAALGCLVKDYFPEPVTVSWNSGALTSGVHTFPAVLQSSGLYSLSSVVTVPSSSLGTQTYICNVNHKPSNTKVDKRVEPKSCDKTHTCPPCPAPEAEGAPSVFLFPPKPKDTLMISRTPEVTCVVVDVSHEDPEVKFNWYVDGVEVHNAKTKPREEQYNSTYRVVSVLTVLHQDWLNGKEYKCKVSNKALPAPIEKTISKAKGQPREPQVYTLPPSREEMTKNQVSLTCLVKGFYPSDIAVEWESNGQPENNYKTTPPVLDSDGSFFLYSKLTVDKSRWQQGNVFSCSVMHEALHNHYTQKSLSLSPG light: AIQLTQSPSSLSASVGDRVTITCRASQGISSALAWYQQKPGKAPKFLIYDASSLESGVPSRFSGSGSGTDFTLTISSLQPEDFATYYCQQFNSYPITFGQGTRLEIKRTVAAPSVFIFPPSDEQLKSGTASVVCLLNNFYPREAKVQWKVDNALQSGNSQESVTEQDSKDSTYSLSSTLTLSKADYEKHKVYACEVTHQGLSSPVTKSFNRGEC	koff (huIL-18Rβ-HisAvi [8]): 0.00022 s⁻¹; kon (huIL-18Rβ-HisAvi [8]): 210000 M⁻¹ s⁻¹; Kd (cyIL-18Rβ-HisAvi [9]): 2.9 nM; koff (cyIL-18Rβ-HisAvi [9]): 0.00032 s⁻¹; kon (cyIL-18Rβ-HisAvi [9]): 110000 M⁻¹ s⁻¹
0.87 nM	0.18 nM	0.00028 s⁻¹	1.6e+06 M⁻¹ s⁻¹	–	–	–	0.73 nM	0.00049 s⁻¹	680000 M⁻¹ s⁻¹	–	–	–	–	–	–	–	–	–	–	P8-V2 (antibody, human IgG1, kappa, name in Kabat numbering, built from the chains of the parent P8 with the printed mutations) heavy: QVQLVQSGAEVKKPGASVKVSCKASGYTFTSYYMHWVRQAPGQGLEWMGIINPRGGYTTYAQKFQGRVTMTRDTSTSTVYMELSSLRSEDTAVYYCAKEGRVSPTDYYGMDVWGQGTTVTVSSASTKGPSVFPLAPSSKSTSGGTAALGCLVKDYFPEPVTVSWNSGALTSGVHTFPAVLQSSGLYSLSSVVTVPSSSLGTQTYICNVNHKPSNTKVDKRVEPKSCDKTHTCPPCPAPEAEGAPSVFLFPPKPKDTLMISRTPEVTCVVVDVSHEDPEVKFNWYVDGVEVHNAKTKPREEQYNSTYRVVSVLTVLHQDWLNGKEYKCKVSNKALPAPIEKTISKAKGQPREPQVYTLPPSREEMTKNQVSLTCLVKGFYPSDIAVEWESNGQPENNYKTTPPVLDSDGSFFLYSKLTVDKSRWQQGNVFSCSVMHEALHNHYTQKSLSLSPG light: not shown	–
1.09 nM	0.22 nM	0.00028 s⁻¹	1.3e+06 M⁻¹ s⁻¹	–	–	–	0.8 nM	0.00047 s⁻¹	580000 M⁻¹ s⁻¹	–	–	–	–	–	–	–	–	–	–	P8-V1 (antibody, human IgG1, kappa, V domains shown, Variant of P8) VH: QVQLVQSGAEVKKPGASVKVSCKASGYTFTSYYMHWVRQAPGQGLEWMGIINPRGGYTTYAQKFQGRVTMTRDTSTSTVYMELSSLRSEDTAVYYCAKEGRVSPTDYYGMDVWGQGTTVTVSS VL: not shown	–

Source: US20250230251A1 (Bristol-Myers Squibb, published 2025)
